Measurements published in publication PMC7280531 (2020).
Where no end group is shown, it is not given here. [ ]: non-standard residue; d: D form. Ahx = NCCCCCC(=O)O

B1: β-catenin (natural protein)
chain: MATQADLMELDMAMEPDRKAAVSHWQQQSYLDSGIHSGATTTAPSLSGKGNPEEEDVDTSQVLYEWEQGFSQSFTQEQVADIDGQYAMTRAQRVRAAMFPETLDEGMQIPSTQFDAAHPTNVQRLAEPSQMLKHAVVNLINYQDDAELATRAIPELTKLLNDEDQVVVNKAAVMVHQLSKKEASRHAIMRSPQMVSAIVRTMQNTNDVETARCTAGTLHNLSHHREGLLAIFKSGGIPALVKMLGSPVDSVLFYAITTLHNLLLHQEGAKMAVRLAGGLQKMVALLNKTNVKFLAITTDCLQILAYGNQESKLIILASGGPQALVNIMRTYTYEKLLWTTSRVLKVLSVCSSNKPAIVEAGGMQALGLHLTDPSQRLVQNCLWTLRNLSDAATKQEGMEGLLGTLVQLLGSDDINVVTCAAGILSNLTCNNYKNKMMVCQVGGIEALVRTVLRAGDREDITEPAICALRHLTSRHQEAEMAQNAVRLHYGLPVVVKLLHPPSHWPLIKATVGLIRNLALCPANHAPLREQGAIPRLVQLLVRAHQDTQRRTSMGGTQQQFVEGVRMEEIVEGCTGALHILARDVHNRIVIRGLNTIPLFVQLLYSPIENIQRVAAGVLCELAQDKEAAEAIEAEGATAPLTELLHSRNEGVATYAAAVLFRMSEDKPQDYKKRLSVELTSSLFRTEPMAWNETADLGLDIGAQGEPLGYRQDDPSYRSFHSGGYGQDALGMDPMMEHEMGGHHPGADYPVDGLPDLGHAQDLMDGLPPGDSNQLAWFDTDL
B2: xStAx (peptide)
chain: Ac-RRWPQLILDLHVRRVWR
modifications: staple (positions not given here); not fully specified (C-terminus); also: further groups not given here
B3: xStAx-VHLL (peptide)
chain: RRWPQLILDLHVRRVWR[Ahx]ALAPYIP
modifications: staple (positions not given here); not fully specified (C-terminus); also: further groups not given here

Experiments:
Assay in all cases: ITC
SAHPA1 = SAHPA1 (stapled: side chains of olefin residues (S5, R8) cross-linked by ring-closing metathesis, positions in Figure 1a; N-terminus treated with acetic anhydride (typical protocol))
SAHPA1-VHLL = SAHPA1-VHLL (stapled: side chains of olefin residues (S5, R8) cross-linked by ring-closing metathesis, positions in Figure 1a; 6-aminocaproic acid (Ahx) linker between the stapled peptide and the VHL ligand)
β-catenin [1] = biological target: B1
β-catenin [2] = biological target: B1

Binder | Ka (SAHPA1) [M⁻¹] | Kd (SAHPA1) [µM] | Ka (SAHPA1-VHLL) [M⁻¹] | Kd (SAHPA1-VHLL) [µM] | Ka (β-catenin [1]) [M⁻¹] | Kd (β-catenin [2]) [µM]
B1 | 26400 | 38 | 18100 | 55 |  | 
B2 |  |  |  |  | 27000 | 37
B3 |  |  |  |  |  | 12
